Experiments:
Assay in all cases: SPR, KD relative to WT C2;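 also: biacore SPR at 37 °C, anti-C2 mAbs captured via immobilised goat anti-human IgG, C2 alanine or serine surface mutants as analytes, 1:1 model fitted, double-referenced sensograms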
[1] = target: T1, human C2 L706A (human, UniProt P06681 21-752)
T1 sequence: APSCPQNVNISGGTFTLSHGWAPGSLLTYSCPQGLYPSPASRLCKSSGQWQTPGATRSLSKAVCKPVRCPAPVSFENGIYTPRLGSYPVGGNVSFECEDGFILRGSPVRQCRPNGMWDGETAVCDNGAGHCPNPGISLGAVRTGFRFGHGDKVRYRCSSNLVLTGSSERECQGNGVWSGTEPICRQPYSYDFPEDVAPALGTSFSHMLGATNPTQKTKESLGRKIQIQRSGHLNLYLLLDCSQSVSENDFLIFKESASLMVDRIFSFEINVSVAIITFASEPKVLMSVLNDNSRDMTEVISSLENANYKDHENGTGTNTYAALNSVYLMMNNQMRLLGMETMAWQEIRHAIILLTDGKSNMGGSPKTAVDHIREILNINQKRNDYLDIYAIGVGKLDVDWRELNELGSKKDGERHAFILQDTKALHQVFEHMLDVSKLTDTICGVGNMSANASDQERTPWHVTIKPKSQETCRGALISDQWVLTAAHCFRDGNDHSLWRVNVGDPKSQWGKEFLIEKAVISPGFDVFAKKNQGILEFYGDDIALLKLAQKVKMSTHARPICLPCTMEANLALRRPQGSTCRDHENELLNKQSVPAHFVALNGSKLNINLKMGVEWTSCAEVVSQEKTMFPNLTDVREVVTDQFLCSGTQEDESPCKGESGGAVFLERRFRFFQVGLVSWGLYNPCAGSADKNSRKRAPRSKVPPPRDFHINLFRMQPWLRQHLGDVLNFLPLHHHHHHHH
Protocol: (§1) Surface plasmon resonance (SPR, Biacore) was used for all binding affinity analyses. In brief, goat anti-human IgG was directly immobilised onto the carboxymethyl dextran surface of CM5 sensorchips to approximately 12,000 RU using standard NHS/EDC chemistry at pH 5. The immobilised antibody surface was pre-conditioned with ten injections of polyclonal human IgG (Privigen 60 s) prepared at 1 μg/mL. Ligands (anti-C2 mAbs) were captured at the beginning of each cycle as described below. An adjacent spot or flow cell in which only Polyclonal IgG was capture was used as a reference surface. The goat anti-human IgG Fc antibody surface was regenerate in 100 mM H3PO4, injected for 45 seconds at the end of each cycle. Experiments were performed at 37° C. and the flow rate of each experiment was kept constant at 30 μL/min.
(§2) Sensogram data was double-referenced against a reference anti-IgG surface (i.e. minus anti-C2 mAb) and blank buffer injections obtained within each experiment. The binding data was fit to 1:1 (kinetic or steady-state) model using local Rmax and null refraction index (RI=0) when appropriate. Buffers and solutions were filtered (0.22 μm) prior to use.

[2] = target: T2, human C2 R493A (human, UniProt P06681 21-752)
T2 sequence: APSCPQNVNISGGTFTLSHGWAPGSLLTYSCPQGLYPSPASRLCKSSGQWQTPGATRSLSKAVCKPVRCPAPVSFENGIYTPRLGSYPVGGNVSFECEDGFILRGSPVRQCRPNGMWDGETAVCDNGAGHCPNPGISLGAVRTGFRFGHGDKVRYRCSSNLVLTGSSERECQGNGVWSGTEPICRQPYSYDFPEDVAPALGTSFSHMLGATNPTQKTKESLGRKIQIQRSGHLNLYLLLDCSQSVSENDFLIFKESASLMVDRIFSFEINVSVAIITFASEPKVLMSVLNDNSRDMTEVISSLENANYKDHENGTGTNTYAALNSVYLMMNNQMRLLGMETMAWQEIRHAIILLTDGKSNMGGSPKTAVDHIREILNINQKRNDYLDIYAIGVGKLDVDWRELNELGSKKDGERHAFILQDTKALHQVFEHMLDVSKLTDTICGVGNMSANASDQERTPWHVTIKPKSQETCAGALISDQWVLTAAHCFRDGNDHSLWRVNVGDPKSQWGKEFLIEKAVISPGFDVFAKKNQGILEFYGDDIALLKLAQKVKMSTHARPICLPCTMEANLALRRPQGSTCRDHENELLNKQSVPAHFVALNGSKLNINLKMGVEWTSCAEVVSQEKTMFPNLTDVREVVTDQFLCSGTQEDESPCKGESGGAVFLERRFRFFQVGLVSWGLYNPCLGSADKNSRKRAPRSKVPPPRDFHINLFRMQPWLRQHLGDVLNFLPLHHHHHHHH
Protocol: as §1, §2

[3] = target: T3, human C2 K244A (human, UniProt P06681 21-752)
T3 sequence: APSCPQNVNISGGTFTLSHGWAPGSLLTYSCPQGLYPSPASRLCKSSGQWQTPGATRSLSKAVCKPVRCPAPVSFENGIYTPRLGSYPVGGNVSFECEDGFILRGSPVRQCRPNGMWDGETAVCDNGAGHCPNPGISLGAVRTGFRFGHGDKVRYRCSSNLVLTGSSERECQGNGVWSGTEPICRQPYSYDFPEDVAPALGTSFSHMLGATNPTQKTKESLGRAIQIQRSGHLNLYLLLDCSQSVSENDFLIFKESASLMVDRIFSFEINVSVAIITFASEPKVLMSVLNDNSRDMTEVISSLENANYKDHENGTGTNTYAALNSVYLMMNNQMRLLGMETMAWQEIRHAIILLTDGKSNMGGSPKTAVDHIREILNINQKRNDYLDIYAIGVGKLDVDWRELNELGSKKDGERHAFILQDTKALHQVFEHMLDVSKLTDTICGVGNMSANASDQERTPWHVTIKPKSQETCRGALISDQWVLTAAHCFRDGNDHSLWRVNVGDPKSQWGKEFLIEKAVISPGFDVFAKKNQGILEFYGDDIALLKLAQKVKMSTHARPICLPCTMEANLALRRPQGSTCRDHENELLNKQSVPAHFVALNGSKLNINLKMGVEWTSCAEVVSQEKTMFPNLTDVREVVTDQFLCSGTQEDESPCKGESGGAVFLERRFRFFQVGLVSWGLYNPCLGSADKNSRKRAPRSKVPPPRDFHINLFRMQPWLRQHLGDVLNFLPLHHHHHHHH
Protocol: as §1, §2

[4] = target: T4, human C2 P704A (human, UniProt P06681 21-752)
T4 sequence: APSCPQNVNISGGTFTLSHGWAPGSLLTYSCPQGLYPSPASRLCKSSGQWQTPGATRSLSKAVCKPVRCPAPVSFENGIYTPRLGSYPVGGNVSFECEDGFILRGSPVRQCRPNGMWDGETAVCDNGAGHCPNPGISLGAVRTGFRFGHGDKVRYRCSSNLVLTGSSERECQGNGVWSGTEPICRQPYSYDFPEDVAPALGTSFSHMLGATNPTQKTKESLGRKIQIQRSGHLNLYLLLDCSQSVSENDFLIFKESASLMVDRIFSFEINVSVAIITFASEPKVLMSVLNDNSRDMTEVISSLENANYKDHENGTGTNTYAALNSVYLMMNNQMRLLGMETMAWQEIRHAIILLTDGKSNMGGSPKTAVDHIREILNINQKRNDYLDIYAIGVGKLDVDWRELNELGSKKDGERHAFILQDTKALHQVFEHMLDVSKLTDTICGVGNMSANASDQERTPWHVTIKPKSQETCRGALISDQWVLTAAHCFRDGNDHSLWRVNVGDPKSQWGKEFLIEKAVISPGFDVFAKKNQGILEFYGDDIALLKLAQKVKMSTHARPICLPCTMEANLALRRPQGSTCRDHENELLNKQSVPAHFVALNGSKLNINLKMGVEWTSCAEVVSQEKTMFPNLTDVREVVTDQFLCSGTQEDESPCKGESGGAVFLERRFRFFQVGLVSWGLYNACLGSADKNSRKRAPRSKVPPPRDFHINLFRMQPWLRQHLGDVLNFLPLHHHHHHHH
Protocol: as §1, §2

B1: RF16-226 (antibody, human IgG4 S228P, lambda)
heavy: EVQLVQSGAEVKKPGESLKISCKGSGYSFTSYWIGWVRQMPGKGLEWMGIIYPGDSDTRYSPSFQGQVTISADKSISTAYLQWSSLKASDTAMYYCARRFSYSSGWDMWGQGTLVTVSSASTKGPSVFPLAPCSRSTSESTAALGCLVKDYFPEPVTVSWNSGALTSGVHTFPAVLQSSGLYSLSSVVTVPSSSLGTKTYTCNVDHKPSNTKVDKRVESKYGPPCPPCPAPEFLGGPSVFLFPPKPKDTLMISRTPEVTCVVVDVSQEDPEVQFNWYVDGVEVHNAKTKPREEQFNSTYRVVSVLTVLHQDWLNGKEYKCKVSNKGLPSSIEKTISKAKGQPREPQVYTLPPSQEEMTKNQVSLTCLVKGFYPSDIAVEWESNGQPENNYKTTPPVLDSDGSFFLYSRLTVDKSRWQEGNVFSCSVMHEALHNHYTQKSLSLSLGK
light: SYELTQPPSVSVSPGQTARITCSGDALTSKYVAWYQQKSGLAPLLVIYEDTRRPSGIPAKFSGSSSGSVATLTISGAHGDDEADYYCYSTDASGHQRVFGGGTKLTVLSQPKAAPSVTLFPPSSEELQANKATLVCLISDFYPGAVTVAWKADGSPVKAGVETTKPSKQSNNKYAASSYLSLTPEQWKSHRSYSCQVTHEGSTVEKTVAPTECS
notes: pH-dependent anti-C2 antibody from a phage display library; also called WT
- Fold diff [1]: 23 fold
- Fold diff [2]: 2 fold
- Fold diff [3]: 2 fold
- Fold diff [4]: 12 fold

From patent publication US20220332804A1 (CSL INNOVATION, published 2022)
